Results reported in the supplement of paper PMC9732359.
± gives the uncertainty stated by the source.

Experiment: protein stability index of a GFP-peptide fusion (yeast GPS) (PSI 1-4); higher = more stable; sorted into four equal gates, so the index is relative within each strain
Conditions: doa10∆
Procedure, shortened: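 Plasmids in a pooled yeast library fused tiled 17-residue yeast protein peptides downstream of GFP and also expressed Cherry. Mid-log cultures grown without leucine were sorted into four equal gates by GFP/Cherry fluorescence ratio. Each gate's plasmids were PCR-amplified and Illumina-sequenced, and reads were matched to strains by barcodes. The protein stability index is derived by multiplying each gate's read frequency by its gate number and summing the results.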
In the case of CIIFITFEFINIAFDAH [YML031W/NDC1], the protein stability index is reported as 1.23 ± 0.043.
Work on CIPLVGISVPFHSTYLM [FAS1] yielded a protein stability index of 1.43 ± 0.041.
CITKQDGFKIYDNEKTA [PUP2] gave a protein stability index of 2.85 ± 0.1.
Sequence CKQFPKLSCIQLNCIDT [SRB8] has a protein stability index of 1.54 ± 0.041.
For CLFTKCLEDPEKPFNEN [POP4], the protein stability index was 2.67 ± 0.15.
Sequence CLNTQRGDSTETSSFGS [RRI1] has a protein stability index of 3.61 ± 0.14.
Work on CLTGTVAARMFHILLKL [ECM29] yielded a protein stability index of 2.42 ± 0.093.
For CLTKFQDEEQTEHLTEL [YCG1], the protein stability index was 3.33 ± 0.13.
With CNALIHIKFSAGTEANA [SRB4] the protein stability index was 1.96 ± 0.05.
With CNQMENLLESITKLLEI [YCS4] the protein stability index was 3.19 ± 0.083.
For CRNILGVTSLIKNLGLP [RPP1], the protein stability index was 1.81 ± 0.054.
CRRMILTHVDLIEKFLR [RPB10] gave a protein stability index of 2.85 ± 0.21.
With CSIEPIAAKLINSGLYS [YML103C/NUP188] the protein stability index was 1.77 ± 0.066.
CTFSMEPYHFISNYNTK [SRB8] gave a protein stability index of 1.99 ± 0.083.
Work on DADKLSFNCENFFQAPQ [YML031W/NDC1] yielded a protein stability index of 2.37 ± 0.08.
Sequence DAFVATAFATEFFVQVL [DLS1] has a protein stability index of 2.98 ± 0.089.
DAIQAGIWNDLGSGSNV [PUP1] gave a protein stability index of 2.71 ± 0.26.
For DAMVTRTPVIISLRNNH [SMD2], the protein stability index was 1.61 ± 0.058.
With DANLLGAEVLIKGSKLS [COR1] the protein stability index was 2.94 ± 0.072.
For DATNTSYKMIQLDAYGE [SWP82], the protein stability index was 3.29 ± 0.087.
In the case of DAWVSAAHYNRERIKRG [PRP8], the protein stability index is reported as 2.76 ± 0.13.
Work on DCLSFAPTLSQTYINQE [SSN2] yielded a protein stability index of 2.69 ± 0.074.
With DCMIAHGAASFLKERLM [RPB2] the protein stability index was 3.03 ± 0.088.
DCNSALDQLLVLEKKTR [RPN5] showed a protein stability index of 2.31 ± 0.068.
DDDDDDDDEVDYSEIQR [DSN1] gave a protein stability index of 2.98 ± 0.067.
Work on DDDINWQELARSTDEFN [RPT5] yielded a protein stability index of 3.18 ± 0.064.
With DDDISDDEEDEIEENCL [RPN4] the protein stability index was 3.48 ± 0.1.
Sequence DDDTFSDREMAALIASK [RPN2] has a protein stability index of 1.6 ± 0.079.
Work on DDETPSCEVEEIGLLGG [SNU114] yielded a protein stability index of 3.13 ± 0.11.
Sequence DDHSQVINPQQLLKGLS [DSN1] has a protein stability index of 3.17 ± 0.1.
For DDKVSVVEKEKIESLAG [UBP6], the protein stability index was 3.31 ± 0.2.
DDKYGRKFALEKLYIFY [SRP72] gave a protein stability index of 2.71 ± 0.076.
DDLKQKKEELVEIAYHK [RPO31] gave a protein stability index of 3.18 ± 0.16.
For DDNDVPGPLPDTDSKPS [YLR018C/POM34], the protein stability index was 2.9 ± 0.12.
DDQCMLITTYSKLSKNI [SIN4] gave a protein stability index of 1.97 ± 0.065.
Work on DDSANIVNVNFMKSVIR [DIS3] yielded a protein stability index of 2.92 ± 0.051.
DDSTKFQLVNDVMDELI [SIR3] gave a protein stability index of 3.29 ± 0.15.
In the case of DDTWYNLTEFVQMDKIR [AAR2], the protein stability index is reported as 2.82 ± 0.11.
In the case of DEATVPNTRDAESEAIT [SWI3], the protein stability index is reported as 3.09 ± 0.077.
Sequence DEDDDLDEDDVNADDDD [RPB4] has a protein stability index of 3.12 ± 0.1.
Work on DEDESQNIAQSSNQSAP [HRT1] yielded a protein stability index of 2.99 ± 0.07.
Sequence DEEGIFSRFVDQFIRHV [YCG1] has a protein stability index of 2.98 ± 0.16.
DEGLLNMVSLRGRNDTL [GRR1] gave a protein stability index of 2.55 ± 0.15.
DEIYIPINGNEAESQWY [CSI1] gave a protein stability index of 2.63 ± 0.065.
For DEKNKNNNEDNENNNNS [MED2], the protein stability index was 3.11 ± 0.084.
In the case of DELILPLPSHALTVQEV [YDL116W/NUP84], the protein stability index is reported as 2.4 ± 0.038.
With DELMVIYISNLVRSIIA [RPN8] the protein stability index was 2.44 ± 0.28.
DESYARAYRIIRAHQTE [QCR7] showed a protein stability index of 3.17 ± 0.17.
DETKGFDDNDSGNNYND [MED2] showed a protein stability index of 3.1 ± 0.055.
Work on DEYQAAVEQRKKEKLDS [DPB4] yielded a protein stability index of 3.47 ± 0.13.
For DFDGDEMNLHVPQSEET [RPO21], the protein stability index was 3.04 ± 0.083.
DFISPELIIDKVTCSSN [MED1] gave a protein stability index of 1.69 ± 0.1.
DFLRYINIKYLRLDGHT [SNF2] showed a protein stability index of 2.5 ± 0.071.
With DFVRNELNDIDTKIDQV [SMC3] the protein stability index was 3.19 ± 0.15.
With DGFKIYDNEKTAELIKE [PUP2] the protein stability index was 3.29 ± 0.1.
With DGGLEEETDEVSSESSD [SIR3] the protein stability index was 3.3 ± 0.099.
Sequence DGIVVKNAVVRSKFGGD [ARP7] has a protein stability index of 3.24 ± 0.26.
Sequence DGKEDVEKGTPLGKILL [SME1] has a protein stability index of 3.57 ± 0.071.
For DGLEKAAFNGVTFKDKY [FAS2], the protein stability index was 1.94 ± 0.083.
In the case of DGMDAAHIEKQSLDTIG [RPO21], the protein stability index is reported as 3.36 ± 0.088.
Work on DGNNEIFTCQIMNLITN [RPN4] yielded a protein stability index of 2.09 ± 0.083.
Work on DGTAKEVGDEADNTKDK [MED4] yielded a protein stability index of 3.06 ± 0.11.
Sequence DHDDSTDDADDHINWEH [NSL1] has a protein stability index of 3.31 ± 0.088.
DHHPEGLSAREAVKQAA [PRE10] gave a protein stability index of 3.02 ± 0.095.
Sequence DHILFTKTFIFIYKKVL [SRB8] has a protein stability index of 1.49 ± 0.091.
With DHKFPIRENKVTYSRVS [BRN1] the protein stability index was 2.75 ± 0.13.
Sequence DIEIVRVNKNAPAVELH [FAS2] has a protein stability index of 2.87 ± 0.061.
DIENKEEEYDETHETNI [YAR002W/NUP60] gave a protein stability index of 3.34 ± 0.071.
Work on DIFGDSELFDEWFEQNN [ISW2] yielded a protein stability index of 2.36 ± 0.069.
DIGKGAETTFLQDVIAL [RPC53] gave a protein stability index of 2.52 ± 0.073.
DIIMNPHGFPSRMTVGK [RET1] gave a protein stability index of 2.67 ± 0.056.
In the case of DIINAVNEIMYKCTAAM [MTW1], the protein stability index is reported as 2.73 ± 0.089.
For DIKAAVDDSMELCGQIR [ITC1], the protein stability index was 2.65 ± 0.092.
DILLRLCVLWDDLQSSV [YCG1] showed a protein stability index of 1.65 ± 0.067.
Work on DINTVNTNLMNGVNVQI [GRR1] yielded a protein stability index of 3.21 ± 0.097.
In the case of DIPPPAIMKPYYLWTGK [RPO31], the protein stability index is reported as 2.74 ± 0.068.
Sequence DIQAMCTEAGLLALRER [RPT2] has a protein stability index of 2.65 ± 0.088.
DIQLKNLFPLKPKMLPI [SRP68] showed a protein stability index of 2.78 ± 0.077.
For DITTSIMDNFLERTAIE [RPN1], the protein stability index was 3.21 ± 0.12.
With DIVQYHLELYTSQYGTP [PRE3] the protein stability index was 2.1 ± 0.063.
Work on DIWQSRDQGNDSLNDDL [YIL149C/MLP2] yielded a protein stability index of 3.53 ± 0.28.
With DKEKEENNDDALDLDLD [MED4] the protein stability index was 2.92 ± 0.072.
Sequence DKFSPEDGLGPLMAKSV [ARP7] has a protein stability index of 3.02 ± 0.11.
With DKKNKRLKFGHRLIATH [SNF2] the protein stability index was 2.02 ± 0.077.
DKLICSIDPPGCVDIDD [DIS3] gave a protein stability index of 3.33 ± 0.068.
DKNKLLLLAAQIVSYCS [SSN2] gave a protein stability index of 1.97 ± 0.039.
DKSTTQLRKEIQLLDEN [MED11] gave a protein stability index of 1.56 ± 0.093.
With DKTLRLWDVATGETYQR [ASC1] the protein stability index was 3 ± 0.23.
DKVDDYTPEEVDKIERE [SMC4] gave a protein stability index of 1.17 ± 0.11.
For DKVSSCFPQYVNSKQGA [NNF1], the protein stability index was 2.07 ± 0.088.
For DLCDVVESKFTEKIKSM [RPC19], the protein stability index was 3.43 ± 0.2.
With DLENSPLKTELEANGRS [SSN2] the protein stability index was 3.6 ± 0.094.
With DLESSSPELKADLRPLQ [RPS7B] the protein stability index was 2.89 ± 0.29.
For DLEWQELTSFSSQPLEP [DSN1], the protein stability index was 3.05 ± 0.054.
DLKFKRHKNKHIQGFPT [DSN1] gave a protein stability index of 3.15 ± 0.13.
DLKIEKLVLNISVGESG [RPL11A] gave a protein stability index of 2.81 ± 0.12.
Work on DLKNTRMKSITSTSQKI [SNF5] yielded a protein stability index of 3.23 ± 0.082.
For DLLKLVHLSNGYKMIPG [FAS1], the protein stability index was 2.3 ± 0.057.
In the case of DLNKENKLLRRKLMEME [YIL149C/MLP2], the protein stability index is reported as 3.41 ± 0.2.
With DLSANQRETMKERKLRE [SMC1] the protein stability index was 3.3 ± 0.13.
With DLSRIMDWLDNWGRKEH [ITC1] the protein stability index was 3.31 ± 0.2.
DLSVTPQKSSSKGFVFN [YAR002W/NUP60] showed a protein stability index of 2.74 ± 0.089.
